Data reported in patent US11827701B2, “IL-6 binding molecules” (argenx BV, priority 2012, dated 2023).
Numbering of substitutions follows the chain as printed. Values joined by “and” are separate entries in the source; they are usually repeats but may differ in a detail not shown here. Equal values may be shown once.

B1: 55H1c: 29B11 chain shuffled Fab, periplasmic fraction (antibody, V domains shown)
VH: EVQLVESGGGLVQPGGSLRLSCAASGFTFSSYAMSWVRQAPGKGLEWVSRISSGGISTYYADSVKGRFTISRDNAKNTLYLQMNSLKPEDTAVYYCVRYAWGVQWAFDFWGQGTQVTVSS
VL: AQSVVTQPPSVSGSPGKTVTISCAGTSSDVGYGNYVSWYQQLPGMAPKLLIYDVSKRASGIADRFSGSKSGNTASLTISGLQSEDEADYVCASYRRGGTAVFGGGTHLTVLG
B2: 61H7: anti-IL-6 clone from VH chain shuffling of 24D10; Fab and IgG formats (antibody, V domains shown)
VH: EVQLVESGGGLVQPGGSLRLSCAASGFTFSSYRMYWVRQPPGKGLEWVSAISAGGGSTYYGDSVKGRFTISRDNAKNTVYLQMNSLKPEDTAVYYCANRAGWGMGDYWGQGTQVTVSS
VL: QTVVTQEPSLSVSPGGTVTLTCGLSSGSVTASNYPGWFQQTPGQAPRALIYSTNDRHSGVPSRFSGSISGNKAALTITGAQPEDEADYYCALDIGDITEFGGGTHLTVLG
B3: 61B7: 24D10 chain-shuffled Fab (antibody, V domains shown)
VH: B2 VH with V2L, R33A, Y35S, P40A, L45P, A50R, A53S, T58A, G61A, V79L
VL: B2 VL
B4: 68F2: anti-IL-6 clone from VL shuffling of 20A4; Fab and human IgG1 formats (antibody, listed as Lama glama, V domains shown)
VH: EVQLQESGPGLVKPSQTLSLTCTVSGGSITTRYYAWSWIRQPPGKGLEWMGVIDYDGDTYYSPSLKSRTSISWDTSKNQFSLQLSSVTPEDTAVYYCARDPDVVTGFHYDYWGQGTQVTVSS
VL: QSALTQPPLVSGTPGQTVTISCAGANNDIGTYAYVSWYQQLPGTAPKLLIYKVTTRASGIPSRFSGSKSGNTASLTISGLQSEDEADYYCASYRNFNNAVFGRGTHLTVLG

Columns and labels:
[1] = target: T1, eukaryotically produced human IL-6 (Homo sapiens, UniProt P05231); assay: Surface plasmon resonance (Biacore), eukaryotically produced human IL-6 coated on CM5 chip; format: binding; conditions: for RANKED euk (off-rate): 24D10 chain-shuffled Fabs; for Average binding: average over the IL-6 forms
T1 construct: purchased Humanzyme HZ-1044; host or cells: Human Embryonic kidney cells
T1 sequence (P05231 30-212): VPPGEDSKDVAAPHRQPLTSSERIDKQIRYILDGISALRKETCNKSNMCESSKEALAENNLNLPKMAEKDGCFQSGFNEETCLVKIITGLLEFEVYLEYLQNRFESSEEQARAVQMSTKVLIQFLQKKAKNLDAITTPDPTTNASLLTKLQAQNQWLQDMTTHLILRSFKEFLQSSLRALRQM
Description: (§1) The binding kinetics of IL-6-specific Fabs that were able to cross-compete with the B-E8 antibody was assessed using surface plasmon resonance (Biacore). Specifically, biotinylated (prokaryotic) IL-6 was captured on a streptavidin biacore sensor chip (CM5-SA) and different concentrations of purified Fabs were injected during 3 minutes following by a 5 minute wash with buffer. From the washing phase the off-rate (kd) was determined, while from the injection phase the on-rate (ka) was calculated using the concentration and off-rate as parameters. […] The binding kinetics of antagonistic purified Fabs (Table 3) and periplasmic fractions of Fab-expressing bacteria (Table 4) were also evaluated by surface plasmon resonance (Biacore) using both bacterially and eukaryotically produced human IL-6 directly coated on a CM5 chip. The Fabs tested had off-rates between 6×10^−4 and 2×10^−5 s^−1.
(§2) VL chain shuffling was used to improve the affinity of the Fabs 17F10, 18C7, 18C9, 18C11, 20A4, 29B11, 16D2 and 28A6. In this method, the heavy chain of these clones (as a VHCH1 fragment) was reintroduced into the primary phagemid-light chain library (see Example 1). Affinity selections were performed to select for chain shuffled Fabs with an improved affinity for IL-6. The binding kinetics of chain shuffled Fabs were evaluated by surface plasmon resonance (Biacore) using both bacterially and eukaryotically produced human IL-6, and cynomolgus monkey IL-6 (Tables 5-7). The VH and VL amino acid sequences of exemplary IL-6-specific Fabs selected by the VL chain shuffling method are set forth in Table 14 below.
(§3) VH chain shuffling was also used to improve the affinity of the Fab 24D10. In this method, the light chain of 24D10 was reintroduced into the primary phagemid-heavy chain library (see Example 1) and selected using an off-rate assay. In this type of selection, the phage were allowed to bind to antigen on a substrate for 1.5 to 2 hours. At round 2, after 15 washes with PBS-Tween, an additional wash was performed with the presence of excess soluble IL-6. […] This procedure avoids re-binding of such phage to the coated target. […] The binding kinetics of chain shuffled Fabs and the benchmark antibodies, BE8 and GL18, were evaluated by surface plasmon resonance (Biacore) using both bacterially and eukaryotically produced human IL-6 (Tables 8 and 9). The VH and VL amino acid sequences of exemplary IL-6-specific Fabs selected by the VH chain shuffling method are set forth in Table 14 below. […]

cynomolgus monkey IL-6 [2] = target: T2, cynomolgus monkey IL-6 (Macaca fascicularis, UniProt P79341); assay: Surface plasmon resonance (Biacore), cynomolgus monkey IL-6; format: binding; conditions: periplasmic fractions, 24D10 chain-shuffled Fabs
T2 construct: His
T2 sequence (P79341 28-212): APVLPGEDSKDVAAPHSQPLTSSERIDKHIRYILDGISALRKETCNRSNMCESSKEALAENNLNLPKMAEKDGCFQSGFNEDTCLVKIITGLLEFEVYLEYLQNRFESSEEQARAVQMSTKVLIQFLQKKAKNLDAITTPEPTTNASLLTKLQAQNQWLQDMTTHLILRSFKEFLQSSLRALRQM

[3] = target: T3, bacterially produced human IL-6 (Homo sapiens, UniProt P05231); assay: Surface plasmon resonance (Biacore), bacterially produced human IL-6 coated on CM5 chip; format: binding; conditions: for Bact (off-rate): 24D10 chain-shuffled Fabs
T3 construct: His
T3 sequence (P05231 30-212): as the sequence (P05231 30-212) above
Description: as §1, §2, §3

cynomolgus monkey IL-6 [4] = target: T2, cynomolgus monkey IL-6; assay: Surface plasmon resonance (Biacore), cynomolgus monkey IL-6; format: binding
Description: as §2

IL-6 = assay: Serum amyloid A (SAA) mouse model, induction by injected IL-6; format: in vivo; parameters: SAA, Mean / SAA, Mouse1 / SAA, Mouse2 / SAA, Mouse3 / SAA, Mouse4 / SAA, Mouse5 / SAA, Mouse6: unit not given here; conditions: for SAA, Mouse1 / SAA, Mouse2 / SAA, Mouse3 / SAA, Mouse4 / SAA, Mouse5 / SAA, Mouse6 / SAA, Mean: 0.1 μg IL-6; for SAA, Mean: mean of 6 mice; for in vivo efficacy (block of SAA induction): Balb/c mice, i.v., 0.1 ug IL-6
Description: The in vivo efficacy of clones 68F2 and 61H7 was further investigated by measuring the ability of these antibodies to block serum amyloid A (SAA) induction in response to injected IL-6. General methods for performing this assay are set forth in WO2006/119115A2, which is hereby incorporated by reference in its entirety. […] Four hours after administration of the antibody, the mice were injected with 0.1 ug of IL-6. After a further 16 hours, blood was taken from the mice and the concentration of Serum Amyloid A was determined by ELISA. The dose responses are also graphically depicted in FIG. 13.

[5] = test system: induced psoriatic lesions; assay: Humanized mouse psoriasis xenograft model (epidermal ridge thickness); format: in vivo; conditions: mean±s.e.m.; BNX mice
Description: A mouse xenograft model was employed to evaluate the prophylactic efficacy of clone 68F2 on the development of induced psoriatic lesions. Specifically, BNX mice were transplanted with 5 mm diameter full-thickness skin biopsies from non-involved skin from psoriasis patients (1 per mouse). After 3 weeks, the transplants were injected with 0.5×10^6 activated PBMCs. Treatment of mice with clone 68F2, anti-TNF antibody (Remicade), or betamethasone dipropionate (positive control) was begun 1 day before the activated cells were injected into the transplants.
Treatment efficacy was determined by epidermal ridge thickness, as measured by light microscopy. Significance between groups was analyzed statistically using analysis of variance (ANOVA) followed by post-hoc Least Square Difference (LSD) tests to establish statistical significance differences between treatment groups. A value of p<0.05 denoted a significant difference between groups.

RXF393 cells = assay: Renal cell cancer mouse xenograft model; format: in vivo
Description: The in vivo efficacy of clones 68F2 was investigated in a renal cell cancer mouse xenograft model. […] Briefly, RXF393 cells (2×10^6) were injected subcutaneously at both lateral sides of a nude mouse. Tumors were allowed to grow to a volume between of 50 en 300 mm^3, prior to antibody administration. 90% of the injected mice developed a tumor. 40 mice were split into 5 groups of 8 mice. Each group was received intraperatoneal injection of either PBS (control) or a specific dose of clone 68F2 (1, 3, 10, or 30 mg/kg). Tumor size and survival was monitored twice per week.

[6] = euk, periplasmic fractions, 29B11 chain shuffled
[7] = bact, periplasmic fractions, 29B11 chain shuffled
[8] = cy/cyno, periplasmic fractions, 29B11 chain shuffled
[9] = Euk IL-6, purified 24D10 chain-shuffled Fabs
[10] = Bact, purified 24D10 chain-shuffled Fabs

Row | Molecule | RANKED euk (off-rate) ([1]; periplasmic fractions) | Average binding ([1]; periplasmic fractions) | cyno (off-rate) (cynomolgus monkey IL-6 [2]) | Bact (off-rate) ([3]; periplasmic fractions) | ka [1, 9] | kd [1, 9] | ka [3, 10] | kd [3, 10] | SAA, Mouse1 (IL-6; Ab dose/mouse 0.31 μg) | SAA, Mouse2 (IL-6; Ab dose/mouse 0.31 μg) | SAA, Mouse3 (IL-6; Ab dose/mouse 0.31 μg) | SAA, Mouse4 (IL-6; Ab dose/mouse 0.31 μg) | SAA, Mouse5 (IL-6; Ab dose/mouse 0.31 μg) | SAA, Mouse6 (IL-6; Ab dose/mouse 0.31 μg) | SAA, Mean (IL-6; Ab dose/mouse 0.31 μg) | SAA, Mouse1 (IL-6; Ab dose/mouse 1.25 μg) | SAA, Mouse2 (IL-6; Ab dose/mouse 1.25 μg) | SAA, Mouse3 (IL-6; Ab dose/mouse 1.25 μg) | SAA, Mouse4 (IL-6; Ab dose/mouse 1.25 μg) | SAA, Mouse5 (IL-6; Ab dose/mouse 1.25 μg) | also measured
1 | B1 | 1.01E−04 and 1.06E−04 and 1.13E−04 | 773 RU and 770 RU and 873 RU | 4.17E−04 and 4.30E−04 and 3.90E−04 | 1.35E−04 and 1.40E−04 and 1.26E−04 |  |  |  |  |  |  |  |  |  |  |  |  |  |  |  |  | KA [1, 6]: 1.02e+10 M⁻¹; ka [1, 6]: 1.13e+06 M⁻¹ s⁻¹; kd [1, 6]: 0.000111 s⁻¹; KA [3, 7]: 1e+10 M⁻¹; ka [3, 7]: 1.28e+06 M⁻¹ s⁻¹; kd [3, 7]: 0.000127 s⁻¹; KA (cynomolgus monkey IL-6 [4]; [8]): 1.89e+09 M⁻¹; ka (cynomolgus monkey IL-6 [4]; [8]): 1.16e+06 M⁻¹ s⁻¹; kd (cynomolgus monkey IL-6 [4]; [8]): 0.000615 s⁻¹
2 | B2 | 9.32E−05 | 635 RU | 9.45E−05 | 7.54E−05 | 120000 M⁻¹ s⁻¹ | 5.5e-05 s⁻¹ | 120000 M⁻¹ s⁻¹ | 2e-06 s⁻¹ | 184 | 148 | 124 | 140 | 133 | 76 | 134.2 | 66 | 29 | 33 | 30 | 24 | binding ([1]; periplasmic fractions ('pur' = purified Fab), IL-6 form not stated): 176; SAA, Mouse6 (IL-6; Ab dose/mouse 1.25 μg): 35; SAA, Mean (IL-6; Ab dose/mouse 1.25 μg): 36.2; SAA, Mouse1 (IL-6; Ab dose/mouse 5 μg): 47; SAA, Mouse2 (IL-6; Ab dose/mouse 5 μg): 62; SAA, Mouse3 (IL-6; Ab dose/mouse 5 μg): 47; SAA, Mouse4 (IL-6; Ab dose/mouse 5 μg): 40; SAA, Mouse5 (IL-6; Ab dose/mouse 5 μg): 46; SAA, Mouse6 (IL-6; Ab dose/mouse 5 μg): 47; SAA, Mean (IL-6; Ab dose/mouse 5 μg): 48.2; in vivo efficacy (block of SAA induction) (IL-6): in vivo efficacy at least equal to the high potency benchmark controls GL18 and CNTO136
3 | B3 | 9.79E−05 | 597 RU | 1.16E−04 | 9.07E−05 | 330000 M⁻¹ s⁻¹ | 6.6e-05 s⁻¹ | 350000 M⁻¹ s⁻¹ | 5.7e-05 s⁻¹ |  |  |  |  |  |  |  |  |  |  |  |  | 
4 | B4 |  |  |  |  |  |  |  |  | 83 | 129 | 116 | 132 | 145 | 136 | 123.5 | 69 | 67 | 81 | 73 | 47 | epidermal ridge thickness [5]: 125 μm; SAA, Mouse6 (IL-6; Ab dose/mouse 1.25 μg): 83; SAA, Mean (IL-6; Ab dose/mouse 1.25 μg): 70.0; SAA, Mouse1 (IL-6; Ab dose/mouse 5 μg): 76; SAA, Mouse2 (IL-6; Ab dose/mouse 5 μg): 38; SAA, Mouse3 (IL-6; Ab dose/mouse 5 μg): 46; SAA, Mouse4 (IL-6; Ab dose/mouse 5 μg): 63; SAA, Mouse5 (IL-6; Ab dose/mouse 5 μg): 43; SAA, Mouse6 (IL-6; Ab dose/mouse 5 μg): 40; SAA, Mean (IL-6; Ab dose/mouse 5 μg): 51.0; in vivo efficacy (block of SAA induction) (IL-6): in vivo efficacy at least equal to the high potency benchmark controls GL18 and CNTO136; Koff HIS-cyIL-6 (cynomolgus monkey IL-6 [4]; purified chain-shuffled Fabs): 0.00075 s⁻¹; median survival time (RXF393 cells; 1 mg/kg): 21 days; median survival time (RXF393 cells; 3 mg/kg): 21 days; median survival time (RXF393 cells; 10 mg/kg): 27.5 days; median survival time (RXF393 cells; 30 mg/kg): 21 days; tumor outgrowth (RXF393 cells; 1, 3, 10, 30 mg/kg): effective at inhibiting tumor outgrowth in a dose-dependent manner with saturating effects at 10 mg/kg dose
